Results published in publication PMC10065947.

How the values were obtained:
SH3-003 = SH3-003 (UniProt P06241)
SH3-588 [1] = target: SH3-588 (UniProt P06241)
[2] = target: catechol O-methyltransferase (COMT), wild type (UniProt P22734)
[3] = target: naïve fusion of WT Fyn-SH3 and WT COMT (UniProt P06241)
SH3-588 [4] = target: SH3-588 (UniProt P06241); test: fluorescence polarisation
naïve fusion 2 = naïve fusion 2 (UniProt P06241)

Sequence of catechol O-methyltransferase (COMT), wild type (P22734 44-264): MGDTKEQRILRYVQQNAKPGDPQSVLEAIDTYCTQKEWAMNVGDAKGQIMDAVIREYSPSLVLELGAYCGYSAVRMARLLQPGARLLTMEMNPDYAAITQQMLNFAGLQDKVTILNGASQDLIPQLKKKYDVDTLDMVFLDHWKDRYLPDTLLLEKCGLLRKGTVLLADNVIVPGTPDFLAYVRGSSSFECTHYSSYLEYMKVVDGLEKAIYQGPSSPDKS

Row | Binder | KM of methylation (steady-state kinetics, MTase-Glo) (SH3-588 [1]) | KM of methylation (steady-state kinetics, MTase-Glo) [2] | KM of methylation (steady-state kinetics, MTase-Glo) [3] | Kd (SH3-588 [4]) | also measured
1 | MKEARSAEAKEAGRGSGGSKNFLDY (HELM PEPTIDE1{M.K.E.A.R.S.A.E.A.K.E.A.G.R.G.S.G.G.S.K.N.F.L.D.[O=C([C@H](Cc1ccc(O)c(O)c1)N[*:1])[*:2]].[am]}$$$$V2.0; N-terminus assumed; SMILES CSCC[C@H](N)C(=O)N[C@@H](CCCCN)C(=O)N[C@@H](CCC(=O)O)C(=O)N[C@@H](C)C(=O)N[C@@H](CCCNC(=N)N)C(=O)N[C@@H](CO)C(=O)N[C@@H](C)C(=O)N[C@@H](CCC(=O)O)C(=O)N[C@@H](C)C(=O)N[C@@H](CCCCN)C(=O)N[C@@H](CCC(=O)O)C(=O)N[C@@H](C)C(=O)NCC(=O)N[C@@H](CCCNC(=N)N)C(=O)NCC(=O)N[C@@H](CO)C(=O)NCC(=O)NCC(=O)N[C@@H](CO)C(=O)N[C@@H](CCCCN)C(=O)N[C@@H](CC(N)=O)C(=O)N[C@@H](Cc1ccccc1)C(=O)N[C@@H](CC(C)C)C(=O)N[C@@H](CC(=O)O)C(=O)N[C@@H](Cc1ccc(O)c(O)c1)C(N)=O) [peptide 1] | 19 µM | 42 µM | 40 µM | – | KM of methylation (steady-state kinetics, MTase-Glo) (SH3-003): 30 µM
2 | APPAPPRNRPRRSGKNFLDY (HELM PEPTIDE1{A.P.P.A.P.P.R.N.R.P.R.R.S.G.K.N.F.L.D.[O=C([C@H](Cc1ccc(O)c(O)c1)N[*:1])[*:2]].[am]}$$$$V2.0; N-terminus assumed; SMILES CC(C)C[C@H](NC(=O)[C@H](Cc1ccccc1)NC(=O)[C@H](CC(N)=O)NC(=O)[C@H](CCCCN)NC(=O)CNC(=O)[C@H](CO)NC(=O)[C@H](CCCNC(=N)N)NC(=O)[C@H](CCCNC(=N)N)NC(=O)[C@@H]1CCCN1C(=O)[C@H](CCCNC(=N)N)NC(=O)[C@H](CC(N)=O)NC(=O)[C@H](CCCNC(=N)N)NC(=O)[C@@H]1CCCN1C(=O)[C@@H]1CCCN1C(=O)[C@H](C)NC(=O)[C@@H]1CCCN1C(=O)[C@@H]1CCCN1C(=O)[C@H](C)N)C(=O)N[C@@H](CC(=O)O)C(=O)N[C@@H](Cc1ccc(O)c(O)c1)C(N)=O) [peptide 5] | 1.5 µM | – | – | 22 µM | –
3 | EWAPPLPPRNRPRRSYSK (HELM PEPTIDE1{E.W.A.P.P.L.P.P.R.N.R.P.R.R.S.[O=C([C@H](Cc1ccc(O)c(O)c1)N[*:1])[*:2]].S.K.[am]}$$$$V2.0; N-terminus assumed; SMILES CC(C)C[C@H](NC(=O)[C@@H]1CCCN1C(=O)[C@@H]1CCCN1C(=O)[C@H](C)NC(=O)[C@H](Cc1c[nH]c2ccccc12)NC(=O)[C@@H](N)CCC(=O)O)C(=O)N1CCC[C@H]1C(=O)N1CCC[C@H]1C(=O)N[C@@H](CCCNC(=N)N)C(=O)N[C@@H](CC(N)=O)C(=O)N[C@@H](CCCNC(=N)N)C(=O)N1CCC[C@H]1C(=O)N[C@@H](CCCNC(=N)N)C(=O)N[C@@H](CCCNC(=N)N)C(=O)N[C@@H](CO)C(=O)N[C@@H](Cc1ccc(O)c(O)c1)C(=O)N[C@@H](CO)C(=O)N[C@@H](CCCCN)C(N)=O) [peptide 7] | 130 µM | – | 400 µM | – | KM of methylation (steady-state kinetics, MTase-Glo) (naïve fusion 2): 0.6 µM
4 | YDLFNKGSGGAPPLPPRNRPRRS (HELM PEPTIDE1{[N[C@@H](Cc1ccc(O)c(O)c1)C(=O)[*:2]].D.L.F.N.K.G.S.G.G.A.P.P.L.P.P.R.N.R.P.R.R.S.[am]}$$$$V2.0; N-terminus assumed; SMILES CC(C)C[C@H](NC(=O)[C@H](CC(=O)O)NC(=O)[C@@H](N)Cc1ccc(O)c(O)c1)C(=O)N[C@@H](Cc1ccccc1)C(=O)N[C@@H](CC(N)=O)C(=O)N[C@@H](CCCCN)C(=O)NCC(=O)N[C@@H](CO)C(=O)NCC(=O)NCC(=O)N[C@@H](C)C(=O)N1CCC[C@H]1C(=O)N1CCC[C@H]1C(=O)N[C@@H](CC(C)C)C(=O)N1CCC[C@H]1C(=O)N1CCC[C@H]1C(=O)N[C@@H](CCCNC(=N)N)C(=O)N[C@@H](CC(N)=O)C(=O)N[C@@H](CCCNC(=N)N)C(=O)N1CCC[C@H]1C(=O)N[C@@H](CCCNC(=N)N)C(=O)N[C@@H](CCCNC(=N)N)C(=O)N[C@@H](CO)C(N)=O) [peptide 3] | 6 µM | – | – | – | –

The next lines start with results.

Row | KM of methylation (steady-state kinetics, MTase-Glo) (SH3-588 [1]) | KM of methylation (steady-state kinetics, MTase-Glo) [2] | KM of methylation (steady-state kinetics, MTase-Glo) [3] | Kd (SH3-588 [4]) | Binder | also measured
5 | – | 132 µM | – | – | EWAPPLPPRNRPRRSGGSKETYSK (HELM PEPTIDE1{E.W.A.P.P.L.P.P.R.N.R.P.R.R.S.G.G.S.K.E.T.[O=C([C@H](Cc1ccc(O)c(O)c1)N[*:1])[*:2]].S.K.[am]}$$$$V2.0; N-terminus assumed; SMILES CC(C)C[C@H](NC(=O)[C@@H]1CCCN1C(=O)[C@@H]1CCCN1C(=O)[C@H](C)NC(=O)[C@H](Cc1c[nH]c2ccccc12)NC(=O)[C@@H](N)CCC(=O)O)C(=O)N1CCC[C@H]1C(=O)N1CCC[C@H]1C(=O)N[C@@H](CCCNC(=N)N)C(=O)N[C@@H](CC(N)=O)C(=O)N[C@@H](CCCNC(=N)N)C(=O)N1CCC[C@H]1C(=O)N[C@@H](CCCNC(=N)N)C(=O)N[C@@H](CCCNC(=N)N)C(=O)N[C@@H](CO)C(=O)NCC(=O)NCC(=O)N[C@@H](CO)C(=O)N[C@@H](CCCCN)C(=O)N[C@@H](CCC(=O)O)C(=O)N[C@H](C(=O)N[C@@H](Cc1ccc(O)c(O)c1)C(=O)N[C@@H](CO)C(=O)N[C@@H](CCCCN)C(N)=O)[C@@H](C)O) [peptide 2] | –
6 | – | – | – | 0.69 µM | APPLPPRNRPRRSGKNFLDY (HELM PEPTIDE1{A.P.P.L.P.P.R.N.R.P.R.R.S.G.K.N.F.L.D.[O=C([C@H](Cc1ccc(O)c(O)c1)N[*:1])[*:2]].[am]}$$$$V2.0; N-terminus assumed; SMILES CC(C)C[C@H](NC(=O)[C@H](Cc1ccccc1)NC(=O)[C@H](CC(N)=O)NC(=O)[C@H](CCCCN)NC(=O)CNC(=O)[C@H](CO)NC(=O)[C@H](CCCNC(=N)N)NC(=O)[C@H](CCCNC(=N)N)NC(=O)[C@@H]1CCCN1C(=O)[C@H](CCCNC(=N)N)NC(=O)[C@H](CC(N)=O)NC(=O)[C@H](CCCNC(=N)N)NC(=O)[C@@H]1CCCN1C(=O)[C@@H]1CCCN1C(=O)[C@H](CC(C)C)NC(=O)[C@@H]1CCCN1C(=O)[C@@H]1CCCN1C(=O)[C@H](C)N)C(=O)N[C@@H](CC(=O)O)C(=O)N[C@@H](Cc1ccc(O)c(O)c1)C(N)=O) [peptide 4] | –
